The record followed here is the supplement of paper PMC7877785.

± gives the uncertainty stated by the source.

The series is described as follows: self-splicing fitness, log relative to wild type (ln ratio); higher = more splicing; Tetrahymena group I intron in knt gene, E. coli kanamycin selection, DiMSum; sequences stand for … in CUCUCU…GGAGGGAAAAGUUAUCAGGCAUGCACCUGGUAGCUAGUCUUUAAACCAAUAGAUUGCAUCGGUUUAAAAGGCAAGACCGUCAAAUUGCGGGAAAGGGGUCAACAGCCGUUCAGUACCAAGUCUCAGGGGAAACUUUGAGAUGGCCUUGCAAAGGGUAUGGUAAUAAGCUGACGGACAUGGUCCUAACCACGCAGCCAAGUCCUAAGUCAACAGAUCUUCUGUUGAUAUGGAUGCAGUUCACAGACUAAAUGUCGGUCGGGGAAGAUGUAUUCUUCUCAUAAGAUAUAGUCGGACCUCUCCUUAAUGGGAGCUAGCGGAUGAAGUGAUGCAACACUGGAGCCGCUGGGAACUAAUUUGUAUGCGAAAGUAUAUUGAUUAGUUUUGGAGUACUCGUGGUCG
Summed up:
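Colonies from six replicate transformations of E. coli BL21(DE3) were pooled and amplicon-sequenced on an Illumina HiSeq 2500. The library placed an intron with all eight P1ex-region nucleotides randomised inside the knt kanamycin-resistance gene on pET-22b(+), and cells grew overnight at 37°C or 30°C on LB agar with or without 25 μg/mL kanamycin (plus 100 μg/mL carbenicillin, 50 μM IPTG, 0.2% rhamnose). Fitness is the DiMSum error-weighted combination of wild-type-normalised replicate fold changes, kanamycin versus none.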

Take CUGAAGCAAUAUUACGGACU: the “self-splicing fitness (ln)” value by setting is: (30 °C) -2.85 ± 0.22; (37 °C) -0.495 ± 0.17.
AUGGAGCAAUAUUACGGGGU: where the note is “37 °C”, the “self-splicing fitness (ln)” value was -2.27 ± 0.37.
For the sequence AUCAAGCAAUAUUACGACUU, the “self-splicing fitness (ln)” value is -0.501 ± 0.049 (30 °C) and 0.297 ± 0.064 (37 °C).
For AUUUAGCAAUAUUACGCAGC, the “self-splicing fitness (ln)” value is, setting by setting: (30 °C) -2.71 ± 0.35; (37 °C) -1.68 ± 0.43.
The like results for GUGUAGCAAUAUUACGACGU were, in that order, 0.117 ± 0.095 and 0.9 ± 0.12.
The like results for AUUUAGCAAUAUUACGGUCC were, in that order, -2.72 ± 0.17 and -0.126 ± 0.15.
The like results for GAUCAGCAAUAUUACGAAAU were, in that order, -0.667 ± 0.081 and 0.175 ± 0.1.
For CGGAAGCAAUAUUACGGACA, the “self-splicing fitness (ln)” value (30 °C) stood at 0.389 ± 0.13 and the “self-splicing fitness (ln)” value (37 °C) was -0.329 ± 0.15.
The like results for CUUAAGCAAUAUUACGCACU were, in that order, -2.93 ± 0.17 and -1.53 ± 0.17.
Taken in the same sequence, the figures for UAAAAGCAAUAUUACGCUGG were -1.46 ± 0.13 and -1.65 ± 0.17.
Taken in the same sequence, the figures for GACAAGCAAUAUUACGGCUA were -0.175 ± 0.074 and -0.187 ± 0.079.
UUUAAGCAAUAUUACGGUAU: the “self-splicing fitness (ln)” value by setting is: (30 °C) -3.05 ± 0.17; (37 °C) -0.94 ± 0.17.
Consider CCUCAGCAAUAUUACGUUGC, for which the “self-splicing fitness (ln)” value was -3.32 ± 0.28 (30 °C) and -2.52 ± 0.32 (37 °C).
The like results for CGGUAGCAAUAUUACGGCAC were, in that order, -2.11 ± 0.26 and -1.99 ± 0.36.
The like results for AACGAGCAAUAUUACGUACC were, in that order, -2.91 ± 0.23 and -1.9 ± 0.2.
As for UCGGAGCAAUAUUACGGGAC, the “self-splicing fitness (ln)” value (37 °C) is -1.99 ± 0.29.
With UGAUAGCAAUAUUACGUCAC, the “self-splicing fitness (ln)” value by setting is: (30 °C) -4.14 ± 0.22; (37 °C) -2.81 ± 0.22.
Taken in the same sequence, the figures for CAAGAGCAAUAUUACGCCCU were -2.51 ± 0.49 and -2.72 ± 0.44.
For CAGAAGCAAUAUUACGGACG, the “self-splicing fitness (ln)” value was -0.743 ± 0.092 (30 °C) and -0.739 ± 0.12 (37 °C).
The like results for GGCAAGCAAUAUUACGCUUC were, in that order, -1.44 ± 0.21 and -2.39 ± 0.42.
On to GAGUAGCAAUAUUACGAACC, for which the “self-splicing fitness (ln)” value was -1.17 ± 0.12 (30 °C) and -0.433 ± 0.14 (37 °C).
Turning to CUACAGCAAUAUUACGCACA, the “self-splicing fitness (ln)” value runs as follows: (30 °C) -3.12 ± 0.2; (37 °C) -3.29 ± 0.27.
The like results for UCUUAGCAAUAUUACGGGCU were, in that order, -4.8 ± 0.46 and -2.26 ± 0.28.
Turning to GAGGAGCAAUAUUACGCGAG, the “self-splicing fitness (ln)” value (37 °C) was -2.99 ± 0.35.
Take CAGUAGCAAUAUUACGUAUG: the “self-splicing fitness (ln)” value runs as follows: (30 °C) -2.06 ± 0.11; (37 °C) -1.93 ± 0.16.
Regarding CGCGAGCAAUAUUACGCGGU, the “self-splicing fitness (ln)” value reads like this: (30 °C) -3.56 ± 0.3; (37 °C) -2.79 ± 0.18.
The like results for AGCAAGCAAUAUUACGCCCA were, in that order, -0.157 ± 0.17 and -0.704 ± 0.22.
Take CUACAGCAAUAUUACGUGUU: the “self-splicing fitness (ln)” value was -3.08 ± 0.16 (30 °C) and -2.94 ± 0.15 (37 °C).
Regarding CUGGAGCAAUAUUACGAGUG, the “self-splicing fitness (ln)” value reads like this: (30 °C) -1.26 ± 0.087; (37 °C) -0.568 ± 0.12.
As for GUCAAGCAAUAUUACGUAAA, the “self-splicing fitness (ln)” value runs as follows: (30 °C) -0.78 ± 0.058; (37 °C) -0.463 ± 0.07.
Turning to GUAAAGCAAUAUUACGCUGU, the “self-splicing fitness (ln)” value was -0.603 ± 0.083 (30 °C) and -1.16 ± 0.12 (37 °C).
Regarding UACGAGCAAUAUUACGGGUU, the “self-splicing fitness (ln)” value was -2.88 ± 0.14 (30 °C) and -3.21 ± 0.23 (37 °C).
The like results for CUUAAGCAAUAUUACGUGAG were, in that order, -3.73 ± 0.19 and -2.14 ± 0.14.
CAUCAGCAAUAUUACGUCGA: the “self-splicing fitness (ln)” value (30 °C) was -3 ± 0.21 and the “self-splicing fitness (ln)” value (37 °C) is -2.66 ± 0.24.
